The text below walks through data of article PMC3236217.

Assay [1] has as its target inactive ERK2 (UniProt P63086). Kind of assay: pull-down; 9 µg active phosphorylated (without or with 1 mM ATP) or inactive ERK2 covalently attached to CNBr-activated Sepharose, 3 µg purified arrestin in 60 µl of 50 mM Tris-HCl pH 7.4, 100 mM KCl, 1 mM EGTA, 1 mM DTT, 20 min at 30°C; two washes; bound arrestin quantified by Western blot. For orientation: A western blot detects proteins with antibodies after separation by electrophoresis.

The target in assay [2] is constitutively active MEK1, Q02750.
Assay [3] has as its target T1, active ERK2 phosphorylated at Thr183 and Tyr185 (PP-ERK2), P63086.
T1 chain: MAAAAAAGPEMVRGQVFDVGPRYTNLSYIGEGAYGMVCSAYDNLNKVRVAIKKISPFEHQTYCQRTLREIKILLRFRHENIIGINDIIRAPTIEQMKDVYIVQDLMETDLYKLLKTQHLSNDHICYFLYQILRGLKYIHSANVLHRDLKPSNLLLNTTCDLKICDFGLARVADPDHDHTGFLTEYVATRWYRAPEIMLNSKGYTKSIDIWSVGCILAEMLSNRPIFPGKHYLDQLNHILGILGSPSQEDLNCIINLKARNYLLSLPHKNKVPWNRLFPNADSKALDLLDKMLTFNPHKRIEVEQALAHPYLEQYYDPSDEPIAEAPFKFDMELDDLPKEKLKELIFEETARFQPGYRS
Kind of assay: pull-down on ERK2-Sepharose (CNBr-activated Sepharose with covalently attached ERK2), bound arrestin quantified by Western blot. Conditions: chain shown with the change, 9 µg immobilised ERK2, 3 µg arrestin in 60 µl, 50 mM Tris-HCl, pH 7.4, 100 mM KCl, 1 mM EGTA, 1 mM DTT, 20 min at 30°C, read off a plot.

Assay [4] has as its target T2, inactive ERK2, P63086.
T2 chain: T1 chain
The assay is described as above. Conditions: chain shown with the change; no ATP; 9 µg immobilised ERK2, 3 µg arrestin in 60 µl; 50 mM Tris-HCl, pH 7.4, 100 mM KCl, 1 mM EGTA, 1 mM DTT; 20 min at 30°C; parent: est. 1.6; read off a plot.

Positions count from the first letter of the chain named.

With “arrestin-2 (from UniProt P17870 1-418) (natural protein)”, the binding to inactive ERK2 as percent of that to the active form in assay [1] is 33%.

B1: arrestin-3, P32120 1-420 (natural protein)
chain: MGEKPGTRVFKKSSPNCKLTVYLGKRDFVDHLDKVDPVDGVVLVDPDYLKDRKVFVTLTCAFRYGREDLDVLGLSFRKDLFIANYQAFPPTPNPPRPPTRLQERLLRKLGQHAHPFFFTIPQNLPCSVTLQPGPEDTGKACGVDFEIRAFCAKSLEEKSHKRNSVRLVIRKVQFAPEKPGPQPSAETTRHFLMSDRSLHLEASLDKELYYHGEPLNVNVHVTNNSTKTVKKIKVSVRQYADICLFSTAQYKCPVAQVEQDDQVSPSSTFCKVYTITPLLSNNREKRGLALDGKLKHEDTNLASSTIVKEGANKEVLGILVSYRVKVKLVVSRGGDVSVELPFVLMHPKPHDHIALPRPQSAATHPPTLLPSAVPETDAPVDTNLIEFETNYATDDDIVFEDFARLRLKGLKDEDYDDQFC
Take B1: the increase of ERK2 phosphorylation (32P incorporation) by purified MEK1 in the presence of 4.4 pmol arrestin-3, against no arrestin in assay [2] came to 41%.

B2: arrestin-2, P17870 3A (protein)
chain: MGDKGTRVFKKASPNGKLTVYLGKRDFVDHIDLVEPVDGVVLVDPEYLKERRVYVTLTCAFRYGREDLDVLGLTFRKDLFVANVQSFPPAPEDKKPLTRLQERLIKKLGEHAYPFTFEIPPNLPCSVTLQPGPEDTGKACGVDYEVKAFCAENLEEKIHKRNSVRLVIRKVQYAPERPGPQPTAETTRQFLMSDKPLHLEASLDKEIYYHGEPISVNVHVTNNTNKTVKKIKISVRQYADICLFNTAQYKCPVAMEEADDTVAPSSTFCKVYTLTPFLANNREKRGLALDGKLKHEDTNLASSTLLREGANREILGIIVSYKVKVKLVVSRGGLLGDLASSDVAVELPFTLMHPKPKEEPPHREVPEHETPVDTNLIELDTNDDDAAAEDFARQRLKGMKDDKEEEEDGTGSPRLNDR
Regarding B2, the response in assay [3] (no ATP, parent: est. 4.6) stood at 1.4 pmol; in assay [3] (with 1 mM ATP, parent: est. 3.0), 1.7 pmol; in assay [4], 0.9 pmol.

B3: arrestin-2, P17870 1-418 (natural protein)
chain: B2 chain with A386I, A387V, A388F
B3: in assay [2], the increase of ERK2 phosphorylation (32P incorporation) by purified MEK1 in the presence of 4.4 pmol arrestin-2, against no arrestin amounted to 33%.
